According to patent US10294487B2, “Methods and compositions involving ALS variants with native substrate preference” (E I DU PONT DE NEMOURS AND COMPANY, priority 2012, dated 2019):

What was measured:
G. max ALS1 protein [1] = assay: Colorimetric ALS kinetic assay (Km, kcat) with pyruvate as substrate; format: biochemical, Glycine max
Protocol: A survey of known ALS (AcetoLactate Synthase) gene variants (Table 2) was performed, and a number of ALS variants were selected for kinetic evaluation based on breadth and strength of insensitivity to ALS-inhibitor herbicides as well as kinetic activity parameters including the ratio of substrate preferences. The selected ALS gene variants (Table 3) were generated by PCR mediated site-directed mutagenesis. Finnzymes PHUSION® DNA polymerase (Cat. No. F-530S) was used for the PCR reactions, following the instructions for recommended temperatures and cycles in the PHUSION® protocol. Some mutagenesis reactions were assisted by the use of IN-FUSION® enzyme (Clontech Cat. No. 639620) to circularize a linear plasmid with the mutation located within the 15 nucleotide overlapping ends, via recombination following the manufacturer's protocol for primer design and reaction conditions. The ALS genes, beginning with encoded amino acids SISK, (S48 to K51 in the G. max ALS1 protein (SEQ ID NO:1) corresponding to the mature protein N-terminus of the chloroplast localized enzyme), were cloned into the PMAL® E. coli expression vector (New England Biolabs) to express ALS as a fusion protein with a Maltose-Binding Protein (MBP) at the N-terminus with a thrombin site for cleavage and a His-6 tag for affinity purification. All in vitro protein characterization described in the examples was carried out with the isolated proteins after cleavage from the His-MBP fusion partner.
Km and Kcat determinations for recombinant ALS variants (with respect to pyruvate as the substrate) were performed using a colorimetric assay. ALS assays were carried out in 96-well microplates with 150 ul reaction containing 25 mM potassium phosphate, 0.2 mg/ml BSA, 15 mM MgCl2, 0.7 mM TPP, 28 uM FAD and 0-100 mM sodium pyruvate. Reactions were initiated by the addition of ALS enzyme to a final amount of 0.8 ug/well. Parameters for Km and Vmax were determined by fitting the velocity versus substrate concentration data to a rectangular hyperbola using GraphPad Prism software. Kcat values were determined from Vmax based on protein concentration in the reactions.

G. max ALS1 protein [2] = assay: Substrate specificity ratio (Rf), pyruvate versus 2-ketobutyrate, LC-MS of reduced products; format: biochemical, Glycine max; settings: ratio of [pyruvate] to [2-ketobutyrate] giving equal rates of acetolactate and acetohydroxybutyrate formation; 25 mM pyruvate
Source text: The “substrate specificity ratio”, or “Rf”, characterizes the specificity of the ALS enzyme for AHB formation relative to AL formation (Gollop et al. (1989) Biochemistry 28:6310-6317). Rf is the ratio of [pyruvate] to [2-ketobutyrate] that results in equal rates of formation of acetolactate and acetohydroxybutyrate. Rf is a constant at all substrate concentrations. The substrate specificity ratio is ˜114 for the wild type Glycine max ALS1 enzyme (SEQ ID NO:1) compared to ˜3 for the highly resistant allele (HRA) double mutant variant (SEQ ID NO: 10) of the Glycine max ALS1. The soybean HRA sequence is disclosed, for example, in WO2007/024782, herein incorporated by reference.
Substrate preference was determined using the assay described in Example 3; however, the assay was conducted using a constant concentration of pyruvate (25 mM) and varying concentrations of the second substrate, 2-ketobutyrate. Each reaction involving a specific ratio of pyruvate to 2-ketobutyrate, after a set period of time, was quenched by addition of sodium borohydride (7-fold excess) to form the reduced adducts of the products of the two substrates namely; reduced acetolactate for the reaction with pyruvate and reduced aceto hydroxybutyrate for the 2-ketobutyrate reaction. The relative amounts of the two reduced products was determined by first, chromatographic separation using a 4.6×250 mm dC18 column (Atlantis) equilibrated with a 0.1% formic acid solution and subsequent elution using a methanol gradient at 0.7 ml/min, followed by detection using a Thermo FINNIGAN® LTQ® Mass Spectrometer (MS). The products of the two reactions were quantified by integration of the MS signals. The % of the amount of each of the reduced products was then plotted versus the concentration of 2-ketobutyrate. As the 2-ketobutyrate amount increased there was a consequent increase in reduced acetohydroxybutyrate (AHB) and decrease in reduced acetolactate (AL). […] The substrate specificity ratio was ˜114 for the wild type enzyme compared to 3 for the highly resistant allele (HRA) double mutant ALS variant (SEQ ID NO: 10).

B1: GM-ALS_G102S: Glycine Max ALS1 variant with a G→S mutation at position 102 (protein)
chain: MAATASRTTRFSSSSSHPTFPKRITRSTLPLSHQTLTKPNHALKIKCSISKPPTAAPFTKEAPTTEPFVSRFASGEPRKGADILVEALERQGVTTVFAYPGSASMEIHQALTRSAAIRNVLPRHEQGGVFAAEGYARSSGLPGVCIATSGPGATNLVSGLADALMDSVPVVAITGQVPRRMIGTDAFQETPIVEVSRSITKHNYLILDVDDIPRVVAEAFFVATSGRPGPVLIDIPKDVQQQLAVPNWDEPVNLPGYLARLPRPPAEAQLEHIVRLIMEAQKPVLYVGGGSLNSSAELRRFVELTGIPVASTLMGLGTFPIGDEYSLQMLGMHGTVYANYAVDNSDLLLAFGVRFDDRVTGKLEAFASRAKIVHIDIDSAEIGKNKQAHVSVCADLKLALKGINMILEEKGVEGKFDLGGWREEINVQKHKFPLGYKTFQDAISPQHAIEVLDELTNGDAIVSTGVGQHQMWAAQFYKYKRPRQWLTSGGLGAMGFGLPAAIGAAVANPGAVVVDIDGDGSFIMNVQELATIRVENLPVKILLLNNQHLGMVVQWEDRFYKSNRAHTYLGDPSSESEIFPNMLKFADACGIPAARVTKKEELRAAIQRMLDTPGPYLLDVIVPHQEHVLPMIPSNGSFKDVITEGDGRTRY
modifications: ALS1 variant G102S
Km (G. max ALS1 protein [1]): 3.5 mM
kcat (G. max ALS1 protein [1]): 80 min⁻¹
Substrate specificity ratio (Rf) (G. max ALS1 protein [2]): 10.2

B2: GM-ALS_G102S_D357E: Glycine Max ALS1 with G→S at position 102 and D→E at position 357 (protein)
chain: MAATASRTTRFSSSSSHPTFPKRITRSTLPLSHQTLTKPNHALKIKCSISKPPTAAPFTKEAPTTEPFVSRFASGEPRKGADILVEALERQGVTTVFAYPGSASMEIHQALTRSAAIRNVLPRHEQGGVFAAEGYARSSGLPGVCIATSGPGATNLVSGLADALMDSVPVVAITGQVPRRMIGTDAFQETPIVEVSRSITKHNYLILDVDDIPRVVAEAFFVATSGRPGPVLIDIPKDVQQQLAVPNWDEPVNLPGYLARLPRPPAEAQLEHIVRLIMEAQKPVLYVGGGSLNSSAELRRFVELTGIPVASTLMGLGTFPIGDEYSLQMLGMHGTVYANYAVDNSDLLLAFGVRFDERVTGKLEAFASRAKIVHIDIDSAEIGKNKQAHVSVCADLKLALKGINMILEEKGVEGKFDLGGWREEINVQKHKFPLGYKTFQDAISPQHAIEVLDELTNGDAIVSTGVGQHQMWAAQFYKYKRPRQWLTSGGLGAMGFGLPAAIGAAVANPGAVVVDIDGDGSFIMNVQELATIRVENLPVKILLLNNQHLGMVVQWEDRFYKSNRAHTYLGDPSSESEIFPNMLKFADACGIPAARVTKKEELRAAIQRMLDTPGPYLLDVIVPHQEHVLPMIPSNGSFKDVITEGDGRTRY
modifications: ALS1 variant G102S D357E
Km (G. max ALS1 protein [1]): 8 mM
kcat (G. max ALS1 protein [1]): 105 min⁻¹
Substrate specificity ratio (Rf) (G. max ALS1 protein [2]): 16.9

B3: GM-ALS_A103T: Glycine Max ALS1 variant with a A→T mutation at position 103 (protein)
chain: MAATASRTTRFSSSSSHPTFPKRITRSTLPLSHQTLTKPNHALKIKCSISKPPTAAPFTKEAPTTEPFVSRFASGEPRKGADILVEALERQGVTTVFAYPGGTSMEIHQALTRSAAIRNVLPRHEQGGVFAAEGYARSSGLPGVCIATSGPGATNLVSGLADALMDSVPVVAITGQVPRRMIGTDAFQETPIVEVSRSITKHNYLILDVDDIPRVVAEAFFVATSGRPGPVLIDIPKDVQQQLAVPNWDEPVNLPGYLARLPRPPAEAQLEHIVRLIMEAQKPVLYVGGGSLNSSAELRRFVELTGIPVASTLMGLGTFPIGDEYSLQMLGMHGTVYANYAVDNSDLLLAFGVRFDDRVTGKLEAFASRAKIVHIDIDSAEIGKNKQAHVSVCADLKLALKGINMILEEKGVEGKFDLGGWREEINVQKHKFPLGYKTFQDAISPQHAIEVLDELTNGDAIVSTGVGQHQMWAAQFYKYKRPRQWLTSGGLGAMGFGLPAAIGAAVANPGAVVVDIDGDGSFIMNVQELATIRVENLPVKILLLNNQHLGMVVQWEDRFYKSNRAHTYLGDPSSESEIFPNMLKFADACGIPAARVTKKEELRAAIQRMLDTPGPYLLDVIVPHQEHVLPMIPSNGSFKDVITEGDGRTRY
modifications: ALS1 variant A103T
Km (G. max ALS1 protein [1]): 3 mM
kcat (G. max ALS1 protein [1]): 109 min⁻¹
Substrate specificity ratio (Rf) (G. max ALS1 protein [2]): 83.3

B4: GM-ALS_G102S_P178S: Glycine Max ALS1 with G→S at position 102 and P→S at position 178 (protein)
chain: MAATASRTTRFSSSSSHPTFPKRITRSTLPLSHQTLTKPNHALKIKCSISKPPTAAPFTKEAPTTEPFVSRFASGEPRKGADILVEALERQGVTTVFAYPGSASMEIHQALTRSAAIRNVLPRHEQGGVFAAEGYARSSGLPGVCIATSGPGATNLVSGLADALMDSVPVVAITGQVSRRMIGTDAFQETPIVEVSRSITKHNYLILDVDDIPRVVAEAFFVATSGRPGPVLIDIPKDVQQQLAVPNWDEPVNLPGYLARLPRPPAEAQLEHIVRLIMEAQKPVLYVGGGSLNSSAELRRFVELTGIPVASTLMGLGTFPIGDEYSLQMLGMHGTVYANYAVDNSDLLLAFGVRFDDRVTGKLEAFASRAKIVHIDIDSAEIGKNKQAHVSVCADLKLALKGINMILEEKGVEGKFDLGGWREEINVQKHKFPLGYKTFQDAISPQHAIEVLDELTNGDAIVSTGVGQHQMWAAQFYKYKRPRQWLTSGGLGAMGFGLPAAIGAAVANPGAVVVDIDGDGSFIMNVQELATIRVENLPVKILLLNNQHLGMVVQWEDRFYKSNRAHTYLGDPSSESEIFPNMLKFADACGIPAARVTKKEELRAAIQRMLDTPGPYLLDVIVPHQEHVLPMIPSNGSFKDVITEGDGRTRY
modifications: ALS1 variant G102S P178S
Km (G. max ALS1 protein [1]): 5 mM
kcat (G. max ALS1 protein [1]): 88 min⁻¹
Substrate specificity ratio (Rf) (G. max ALS1 protein [2]): 12.0

B5: GM-ALS_G102S_D357N: Glycine Max ALS1 with G→S at position 102 and D→N at position 357 (protein)
chain: MAATASRTTRFSSSSSHPTFPKRITRSTLPLSHQTLTKPNHALKIKCSISKPPTAAPFTKEAPTTEPFVSRFASGEPRKGADILVEALERQGVTTVFAYPGSASMEIHQALTRSAAIRNVLPRHEQGGVFAAEGYARSSGLPGVCIATSGPGATNLVSGLADALMDSVPVVAITGQVPRRMIGTDAFQETPIVEVSRSITKHNYLILDVDDIPRVVAEAFFVATSGRPGPVLIDIPKDVQQQLAVPNWDEPVNLPGYLARLPRPPAEAQLEHIVRLIMEAQKPVLYVGGGSLNSSAELRRFVELTGIPVASTLMGLGTFPIGDEYSLQMLGMHGTVYANYAVDNSDLLLAFGVRFDNRVTGKLEAFASRAKIVHIDIDSAEIGKNKQAHVSVCADLKLALKGINMILEEKGVEGKFDLGGWREEINVQKHKFPLGYKTFQDAISPQHAIEVLDELTNGDAIVSTGVGQHQMWAAQFYKYKRPRQWLTSGGLGAMGFGLPAAIGAAVANPGAVVVDIDGDGSFIMNVQELATIRVENLPVKILLLNNQHLGMVVQWEDRFYKSNRAHTYLGDPSSESEIFPNMLKFADACGIPAARVTKKEELRAAIQRMLDTPGPYLLDVIVPHQEHVLPMIPSNGSFKDVITEGDGRTRY
modifications: ALS1 variant G102S D357N
Km (G. max ALS1 protein [1]): 11 mM
kcat (G. max ALS1 protein [1]): 68 min⁻¹
Substrate specificity ratio (Rf) (G. max ALS1 protein [2]): 10.7
